The values below come from the nanobody polyreactivity screen of Harvey et al. (2022).

The series is described as follows: yeast display, Sf9 membrane polyspecificity reagent, FACS + sequencing; frameworks hold sequencing errors. The procedure, abridged: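 Synthetic nanobody libraries on Saccharomyces cerevisiae BJ5465 were galactose-induced for 36–48 hours, stained 1 hour at 4 °C with 10% biotinylated, detergent-solubilized Sf9 membrane reagent and enriched on streptavidin microbeads. FACS then separated cells into low and high (top ~1%) gates by anti-HA (expression) and streptavidin (reagent binding) fluorescence. Genes were colony-PCR amplified, MiSeq 2 × 250 sequenced and CDR-length filtered. A clone's polyreactivity label is that of its gate of origin.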
On to “QVQLVESGGGLVQAGVRLRLSCPASGFIFDWYTMGWYRQAPGKERELVAAITIGGSTDYADSVKGRFTISRDNAKNTVYLQMNSLKPEDTAVYYCNALWYLSGTWYDYWGQGTQVTVSS”, for which the “polyreactivity (PSR sort gate)” value was “low polyreactivity”. As to “QVQLVESGGGLVQAGVSLLISCAASGSTFLLNTMGWYIQAPGKERELVAAISSITGDTYYADSVKVRFTISRDNAKNNDYLQMNSLKPEDTAVYYCAARYYLSSQGWTYDYWGQGTQVTVSS”, the “polyreactivity (PSR sort gate)” value was “low polyreactivity”.

For “QVQLVESGGGLVQAGVSLLLSCAASGSTFGYNAMVCYRQAPGKERELVAAITSSGSTTYYADSVKGRFTISRDNAKNSVYLQLNSLKREDTAVYYCNAPAYYLHYGLYARYDYWGQGTQVTVSS”, the “polyreactivity (PSR sort gate)” value is reported as “low polyreactivity”.

As to “QVQLVESGGGLVQAGVSLRISCAASGGTLNGYAMGWYRQSPGKERELVAVITSGGSTNYADSVKGLFTISRDNAKNTVYLQMNSLKPEDTAVYYCAVRPYELHRLADQPGGDDYWGQGTQVTVSS”, the “polyreactivity (PSR sort gate)” value is “low polyreactivity”.

In the case of “QVQLVESGGGLVQAGVSLRISCAASVRTFSRYTMGWYRPAPGKERELVAANSGDGASTYYADSVKGRFTISRDNAKYSVYLQMYSLKPEDTAVYYCAARGTRYWDYRYYAYNYWGQGTQVTVSS”, the “polyreactivity (PSR sort gate)” value is recorded as “high polyreactivity”. For the sequence “QVQLVESGGGLVQAGVSLRLSCAASARIFSGYAMGWYRQAPGKEREFVAAITSSGRTKYADSVKGRFTISRDNATNTVYLQMNSLKPEDTAVYYCAAYFGYDWPEYDYWRQGTQVTVSS”, the “polyreactivity (PSR sort gate)” value is given as “high polyreactivity”. On to “QVQLVESGGGLVQAGVSLRLSCAASGFIFFPYVMGWYRQAPGKERELVARNTSGGGSTYYADSVKGRFTISRDNAKNTVYIQMNSLKPEDTAGYYCKARRIWYQSTFNYWGQGTQVTVSS”, for which the “polyreactivity (PSR sort gate)” value is “high polyreactivity”.

With “QVQLVESGGGLVQAGVSLRLSCAASGFIFWFYAMGWYRQAPGKERELVAAINWSGSYTYYADSVKARFTISRDNAKNTVYLQMNSLKPEDTAVYYCNALFSYGYWRVRYNYWGQGTQVTVSS”, the “polyreactivity (PSR sort gate)” value was “high polyreactivity”.

Take “QVQLVESGGGLVQAGVSLRLSCAASGFTFYPYAMGWYRQAPGKERELVAAISYSGGRTYADSVKGRFTISRDNAKNTVYLQMNSLKPEDTAVYYCAADWTVLVYPYYHEYDYWGQGTQVTVSS”: the “polyreactivity (PSR sort gate)” value is “low polyreactivity”. Next, “QVQLVESGGGLVQAGVSLRLSCAASGIIFAGYVMGWYRQAPGKARELVAAISYRGGSTNYADSVKGRFTISRDNAKNTVYLQMNSLKPEDTAVYYCNRYSRDSRYGYLKFGYDYWGQGTQVTVSS”: “high polyreactivity”. Next, “QVQLVESGGGLVQAGVSLRLSCAASGINFTRYAMGWYRQAPGKERELVAAITRNGVSTYYADSVKGRFTISRDIAKNSVYLQMKSLKPEDTAVYYCNTFVLRRYAYCYWGQGTQVTVSS”: “high polyreactivity”; “QVQLVESGGGLVQAGVSLRLSCAASGLTLRPYTMGWYRQAPGKERELVAAITGRGGRTHYADSVKGRFTISRDNAKNTVYLQMNSLKPEDTAVYYCAAAARVYVKVGYNYWGQGTQVTVSS”: “high polyreactivity”; “QVQLVESGGGLVQAGVSLRLSCAASGNIFRYYVMGWYRQAPGKEREFVAAITSSGGSTYYADSVKGRFTISRDNAKKSFYLQMNSLKPEDSAVYYCAKDYWDPGWAEYDYWGQGTQVTVSS”: “low polyreactivity”.

For “QVQLVESGGGLVQAGVSLRLSCAASGRIFDRNAMGWYRQAPGKERELVARISRTGGSTYYADSVKGRFTISRDNAKNTVYLQMNSLKPEDTAVYYSAASRGGGYDYWGQGTQVTVSS”, the “polyreactivity (PSR sort gate)” value is “high polyreactivity”. Under “QVQLVESGGGLVQAGVSLRLSCAASGRIFLWYAMGWYRQAPGKERELVAVIRGRGDSTSYADSVKGRFTISRDNAKNTVYLQMNSLKPEDTAVYYCADVGRYDYNDWGQGTQVTVSS” stands “low polyreactivity”. Turning to “QVQLVESGGGLVQAGVSLRLSCAASGRIFRFYAMGWYRQAPGIDRELVATISRSGGSTYYADSVKGRFTISRDNAKNNAYLQMNSLKPEDTAVYYCAAQRLHDGDYWVQGTQVTVSS”, the “polyreactivity (PSR sort gate)” value is on record as “high polyreactivity”. Next, “QVQLVESGGGLVQAGVSLRLSCAASGRIFYHNAMGWYRQAPGKEREFVAAISSRGGTTYYADSVKGRFTISRDNAKKTVYLQMNILKPEDTAVYYCAKQYYSASPAKGDYWGQGTQVTVSS”: “high polyreactivity”; “QVQLVESGGGLVQAGVSLRLSCAASGRTFFPNAMGWYRQAPGKERELVAAITHSGGTTYYADSVKGRFTISRDNAKNTVYLQMNSLKPEDTAVYYCARGQPRYYNSAYGYWGLGTQVTVSS”: “high polyreactivity”. On to “QVQLVESGGGLVQAGVSLRLSCAASGRTFPRYAMGWYRQAPGKERELVASISYSGGSTYYADSVKVRFTISRDTAKNTVYLQLNSLKPEDTAVYYCARRGRTSFKYYYWGQGTQVTVSS”, for which the “polyreactivity (PSR sort gate)” value was “high polyreactivity”. Next, “QVQLVESGGGLVQAGVSLRLSCAASGRTFVTYAMGWSREAPGKEKEFVAAISRTGGSTDYADSVKGRFTISRDNAKNTVYLQMNSLKPEETAVYYCATTVIVSPSGYLKSYYWGQGTQVTVSS”: “high polyreactivity”; “QVQLVESGGGLVQAGVSLRLSCAASGSIFGGYAMGWYRQAPGKERELVAVISTRGGRTYYADSVKGRFTISRDNAKYTVYLQMNSLKPEDTAVYYCAANRQYTEYNYWGQGTQVTVSS”: “high polyreactivity”; “QVQLVESGGGLVQAGVSLRLSCAASGSIFQSYDMGWYRQEPGKEREVVAAISWSGSTTYYADSVKGRFTLSRDNAKNTVYLQMNSLKPEDTAVYYCAVDSNPPDWWAVIYGFWGQGTQVTVSS”: “low polyreactivity”. Consider “QVQLVESGGGLVQAGVSLRLSCAASGSIFTQYAMGWSRQAPGKERELVAAISWSGARTYYADSVKGRFTISRDNAKNTVYIQMNSLKPEDTAVYYWAADIIRPVTVDYWGQGTQVTVSS”, for which the “polyreactivity (PSR sort gate)” value was “high polyreactivity”. “QVQLVESGGGLVQAGVSLRLSCAASGSILRQYAMGWYRQAPGKEWELVAAITGSGGSTSYADSVKGRFTISRDNAKNTVYLQMNSLKPEDTAVYYCNAYLSSRTRSTYGSLRMDYWGPGTQVTVSS”: the “polyreactivity (PSR sort gate)” value is “high polyreactivity”. Next, “QVQLVESGGGLVQAGVSLRLSCAASGSTFARYAMGWYRQAPGKERELVAVITQSGSSTYYADSVKGRFTISRDNAKNTVYLQMNSLKPEDTAVYYCAAVGIDYTRYGRYWYSYDYWGQGTQVTVSS”: “high polyreactivity”; “QVQLVESGGGLVQAGVSLRLSCAASGSTFDTYAMGWYRQAPGKERELVAAISGSGVRTYYADSVKGRFTISRDNAKYTVYLQMNSLKPEDTAVYYCATTGYARRFDYWGQGSQVTVSS”: “high polyreactivity”.

With “QVQLVESGGGLVQAGVSLRLSCAASGSTFGENDMGWYRQAPGKERELVAAITWSGGSTYYADSVKGRFTISRDNAKNTVYLQMNSLNPEVTAVYYCNAEGVGRYSPVSHTFDYWGQGTQVTVSS”, the “polyreactivity (PSR sort gate)” value is recorded as “low polyreactivity”.

For “QVQLVESGGGLVQAGVSLRLSCAASGSTFTYNAMGWYRQAPGKERELVAAISYGGGRTYYADSVKGRFTISRDNAKNTVYLLMNSLKPEDTAVYYCNRYRYSYVEFDYWGQGTQVTVSS”, the “polyreactivity (PSR sort gate)” value is on record as “high polyreactivity”. With “QVQLVESGGGLVQAGVSLRLSCAASGTFFIYAMGWYRQAPGKERELVAAITSGDITYYADSVKGRFTISRDNAKNTVYFEMNRLKPEDTAVYYCAAESYAWWDKQFLYRYDYWGQGTQVTVSS”, the “polyreactivity (PSR sort gate)” value is “low polyreactivity”. Under “QVQLVESGGGLVQAGVSLRLSCADSGFTFDGYAMGWYRQAPGKERELVAAISDSGDSTYYADSVKGRFTISRDNAKNTVYLHMNSLKPEDTAVYYCAAGLGYYWSDYFAYDYWGQGTQVTVSS” stands “low polyreactivity”.

As to “QVQLVESGGGLVQAGVSLRLTCAASGRIFRRYAMGWYRQAPGKEMEFVAAISYGGGSTYYADSVKGRFTISRDNAKNTVYLQMNSLKPEDTAVYYWNADEVVWGYNYWGQGTQVNVSS”, the “polyreactivity (PSR sort gate)” value was “low polyreactivity”. Next, “QVQLVESGGGLVQAGVSLSLSCAASGITFIIYVMGWYRQAPGKERELVAAISSTGSTYYADSVKGRFTISRDNAKNTVYLQMNSLKPEDTAVYYCAARGRRSSNGFYYWGQGTQVTVSS”: “high polyreactivity”; “QVQLVESGGGLVQAGYSLRLSFAASGITFRYYAMGWYRQATGKERELVAGITWSGPSTYYADSVKGRFTISRDNAKNTVYLQMNILKPEYTAVFYCAVDYGLYFTFDYWGQGTQVTVSS”: “low polyreactivity”. As to “QVQLVESGGGLVQALGSLRLSCAASGFIFGYNAMGWYRQAPGQERELVAAISSSGGSTYYADSVKGRFTISRDNAKNTVYLQMNSLKPEDTAVYYGAARPVALRKYDYWGLGTQVTVSS”, the “polyreactivity (PSR sort gate)” value is given as “low polyreactivity”. Under “QVQLVESGGGLVQARGSHRISCAASGRTITFNAMGWYRQAPGKQRELVAGIDLSTTSTYYADSVKGRFTISRDNAKNTVYLQMNSLKPEDCAVYYCNAYRNADYDYWGQGTLVTVSS” stands “low polyreactivity”; under “QVQLVESGGGLVQARGSLRLSCAASGAIFVVYTMGWYRQAPGKERELVAAITQNGGSSTYYADSVKGSFTISRDNAKNTFYLQMNSLKPDDTAVYYCNVDSFTTTFDYWGQGTQVTVSS”, “low polyreactivity”; under “QVQLVESGGGLVQARGSLRLSCAASGFIVSPNVMGWYRQAPGKERELVAVISSTGSTYYADSVKGRFTISRDNAKNTVYLQMNSLKPEDTAVYHCNADYSWYGSSGRPGYDYWGQGTQVTVSS”, “low polyreactivity”. Next, “QVQLVESGGGLVQARGSLRLSCAASGFTFQNNAMGWYRQAPGKERELVAAISRSGGSTYYADSVKGRFTISRDNANITVYLQMNSLKPEDTAVYYCAKSSGTLWITKYDYWGQGTQVTVSS”: “low polyreactivity”; “QVQLVESGGGLVQARGSLRLSCAASGFTFYFYAMGWYRQATGKETELVAAISRSGSRTYYADSVKGRFTISRDNAKNTVYLQMNSLKPVDTAVYYCARVRPRGLYFVLHYDYWGQGTQVTVSS”: “high polyreactivity”; “QVQLVESGGGLVQARGSLRLSCAASGLTFASYAMGWYRQEPGKERELVARISRSGGSTYYADSVKGRFTISRDNAKNTVYFHMNSLKPEDTAVYYCAADYIFRRYPGGGIYDYDYWGQGTQVTVSS”: “high polyreactivity”.
